Experimental data as given in article PMC3526519, “Rationally re-designed mutation of NAD-independent L-lactate dehydrogenase: high optical resolution of racemic mandelic acid by the engineered Escherichia coli” (Microbial Cell Factories, 2012).

Legend:
[1] = molecular target: T1, L-iLDH (NAD-independent L-lactate dehydrogenase) (Stutzerimonas stutzeri, UniProt I1SLB1, V108A); test: DCIP reduction at […] nm, double-reciprocal plots; format: biochemical; details: competitive versus L-mandelate; 0.0625 mM DCIP, 50 mM Tris-HCl pH 7.5, 30 °C
T1 construct: gene lldD; membrane flavoprotein; wild-type prepared as in earlier report
T1 sequence (I1SLB1 1-391 V108A): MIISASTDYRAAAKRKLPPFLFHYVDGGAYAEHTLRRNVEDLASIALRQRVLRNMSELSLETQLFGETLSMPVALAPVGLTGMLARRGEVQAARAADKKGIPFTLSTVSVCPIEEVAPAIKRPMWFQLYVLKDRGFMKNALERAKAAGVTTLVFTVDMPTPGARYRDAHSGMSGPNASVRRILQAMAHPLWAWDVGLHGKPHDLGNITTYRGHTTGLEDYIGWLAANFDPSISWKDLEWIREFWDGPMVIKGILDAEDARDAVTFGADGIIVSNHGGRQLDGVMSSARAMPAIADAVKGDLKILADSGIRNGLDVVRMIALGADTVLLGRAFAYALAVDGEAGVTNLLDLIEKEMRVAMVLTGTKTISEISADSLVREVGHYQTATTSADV

C[C@H](O)C(=O)O = system: T2, C[C@H](O)C(=O)O; test: purified protein; format: biochemical, Stutzerimonas stutzeri; details: 0.0625 mM DCIP as electron acceptor, 50 mM Tris-HCl pH 7.5, 30 °C
T2 construct: membrane flavoprotein; wild-type prepared as in earlier report

O=C(O)[C@@H](O)c1ccccc1 = system: T3, O=C(O)[C@@H](O)c1ccccc1; test: purified protein; format: biochemical, Stutzerimonas stutzeri; details: 0.0625 mM DCIP as electron acceptor, 50 mM Tris-HCl pH 7.5, 30 °C
T3 construct: membrane flavoprotein; wild-type prepared as in earlier report

purified protein [2] = substrate: C[C@H](O)C(=O)O; test: purified protein; format: biochemical, Stutzerimonas stutzeri; details: 0.0625 mM DCIP as electron acceptor, 50 mM Tris-HCl pH 7.5, 30 °C
purified protein [3] = substrate: O=C(O)[C@@H](O)c1ccccc1; test: purified protein; format: biochemical, Stutzerimonas stutzeri; details: 0.0625 mM DCIP as electron acceptor, 50 mM Tris-HCl pH 7.5, 30 °C

O=C(O)[C@H](O)c1ccccc1 [D-mandelate]
Ki [1]: 5.5 ± 0.5 mM

L-iLDH (NAD-independent L-lactate dehydrogenase) (Stutzerimonas stutzeri; V108A)
Km (C[C@H](O)C(=O)O): 0.8 ± 0.1 mM | kcat (C[C@H](O)C(=O)O): 185 ± 36 s⁻¹ | kcat/Km (C[C@H](O)C(=O)O): 231000 M⁻¹ s⁻¹ | Km (O=C(O)[C@@H](O)c1ccccc1): 1.6 ± 0.1 mM | kcat (O=C(O)[C@@H](O)c1ccccc1): 97 ± 13 s⁻¹ | kcat/Km (O=C(O)[C@@H](O)c1ccccc1): 61000 M⁻¹ s⁻¹

B1: L-iLDH (NAD-independent L-lactate dehydrogenase) (Stutzerimonas stutzeri) (protein)
chain: MIISASTDYRAAAKRKLPPFLFHYVDGGAYAEHTLRRNVEDLASIALRQRVLRNMSELSLETQLFGETLSMPVALAPVGLTGMLARRGEVQAARAADKKGIPFTLSTVSVCPIEEVAPAIKRPMWFQLYVLKDRGFMKNALERAKAAGVTTLVFTVDMPTPGARYRDAHSGMSGPNASVRRILQAMAHPLWAWDVGLHGKPHDLGNITTYRGHTTGLEDYIGWLAANFDPSISWKDLEWIREFWDGPMVIKGILDAEDARDAVTFGADGIIVSNHGGRQLDGVMSSARAMPAIADAVKGDLKILADSGIRNGLDVVRMIALGADTVLLGRAFAYALAVDGEAGVTNLLDLIEKEMRVAMVLTGTKTISEISADSLVREVGHYQTATTSADV
notes: membrane flavoprotein; wild-type prepared as in earlier report
Km (purified protein [2]): 0.18 ± 0.01 mM | kcat (purified protein [2]): 445 ± 44 s⁻¹ | kcat/Km (purified protein [2]): 2.47e+06 M⁻¹ s⁻¹ | Km (purified protein [3]): 6.8 ± 1.0 mM | kcat (purified protein [3]): 8.3 ± 1.3 s⁻¹ | kcat/Km (purified protein [3]): 1200 M⁻¹ s⁻¹
